# Patent publication US10428140B2, “Anti-EphA4 antibody” (EISAI R&D MANAGEMENT CO., LTD., priority 2015, dated 2019)
# T1: human EphB2 (Homo sapiens, UniProt P29323)
# T1 construct: a protein of the extracellular region of each human Eph receptor fused with the SEAP protein and the His tag; made in house; host or cells: Expi293F cells
# T1 sequence (P29323 19-543 limits assumed): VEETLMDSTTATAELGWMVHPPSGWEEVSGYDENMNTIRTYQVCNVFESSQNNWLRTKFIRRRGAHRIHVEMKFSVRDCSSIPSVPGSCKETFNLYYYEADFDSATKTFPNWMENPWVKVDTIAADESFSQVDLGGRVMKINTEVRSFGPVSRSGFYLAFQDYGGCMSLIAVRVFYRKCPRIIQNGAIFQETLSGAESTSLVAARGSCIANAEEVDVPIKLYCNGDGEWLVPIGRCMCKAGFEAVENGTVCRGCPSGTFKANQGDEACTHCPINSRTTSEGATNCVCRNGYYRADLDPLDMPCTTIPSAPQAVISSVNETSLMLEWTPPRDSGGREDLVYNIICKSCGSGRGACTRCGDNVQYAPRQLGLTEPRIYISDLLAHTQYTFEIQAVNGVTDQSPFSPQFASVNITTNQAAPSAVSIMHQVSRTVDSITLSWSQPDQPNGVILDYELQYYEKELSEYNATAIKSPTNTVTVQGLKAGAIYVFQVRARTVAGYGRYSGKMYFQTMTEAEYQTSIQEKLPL
# T2: human EphB4 (Homo sapiens, UniProt P54760)
# T2 construct: a protein of the extracellular region of each human Eph receptor fused with the SEAP protein and the His tag; made in house; host or cells: Expi293F cells
# T2 sequence (P54760 16-539 limits assumed): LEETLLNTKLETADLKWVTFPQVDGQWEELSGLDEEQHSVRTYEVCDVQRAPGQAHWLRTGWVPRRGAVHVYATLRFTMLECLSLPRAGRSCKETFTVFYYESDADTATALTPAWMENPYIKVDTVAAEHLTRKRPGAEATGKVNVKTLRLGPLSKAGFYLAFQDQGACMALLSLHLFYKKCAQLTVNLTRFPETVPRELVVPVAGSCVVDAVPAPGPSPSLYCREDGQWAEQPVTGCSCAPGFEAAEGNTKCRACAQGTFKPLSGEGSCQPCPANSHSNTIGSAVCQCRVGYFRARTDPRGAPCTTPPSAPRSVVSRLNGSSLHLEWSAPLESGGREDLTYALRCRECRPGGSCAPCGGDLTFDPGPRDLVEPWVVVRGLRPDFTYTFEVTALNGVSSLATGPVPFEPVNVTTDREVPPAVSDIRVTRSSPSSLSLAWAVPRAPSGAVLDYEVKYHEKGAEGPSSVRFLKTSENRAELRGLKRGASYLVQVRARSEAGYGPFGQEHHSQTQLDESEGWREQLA
# Experiments:
# Experiment in all cases: Selectivity ELISA of humanized antibodies for human Eph receptor
# Format in all cases: binding
# human EphA2 = molecular target: T3, human EphA2 (Homo sapiens, UniProt P29317); settings: coated protein 1 nM
# T3 construct: a protein of the extracellular region of each human Eph receptor fused with the SEAP protein and the His tag; made in house; host or cells: Expi293F cells (culture supernatant)
# T3 sequence (P29317 24-537 limits assumed): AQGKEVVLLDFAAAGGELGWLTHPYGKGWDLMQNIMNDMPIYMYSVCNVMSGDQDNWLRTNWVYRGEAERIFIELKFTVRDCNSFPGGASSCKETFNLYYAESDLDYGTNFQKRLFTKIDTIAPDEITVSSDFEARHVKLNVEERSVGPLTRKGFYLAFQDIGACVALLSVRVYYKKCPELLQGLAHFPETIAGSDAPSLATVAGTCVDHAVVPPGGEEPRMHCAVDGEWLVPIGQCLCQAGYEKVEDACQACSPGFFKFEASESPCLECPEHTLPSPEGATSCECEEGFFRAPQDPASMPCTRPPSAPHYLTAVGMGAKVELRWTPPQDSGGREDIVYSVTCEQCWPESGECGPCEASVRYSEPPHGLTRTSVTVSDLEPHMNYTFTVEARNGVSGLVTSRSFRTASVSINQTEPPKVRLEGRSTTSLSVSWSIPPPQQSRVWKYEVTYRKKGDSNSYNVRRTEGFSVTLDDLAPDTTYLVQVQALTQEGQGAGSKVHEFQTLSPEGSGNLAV
# Outline: (§1)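 Human Eph ECD-SEAP-His fusions, harvested after 5 days of Expi293F expression, are captured on anti-His-coated wells (1 nM final). Bound humanized antibody is detected with HRP anti-IgG and TMB at 450 nm.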
# human EphA4 = molecular target: T4, human EphA4 (Homo sapiens, UniProt P54764); settings: coated protein 1 nM; reference set to 100%
# T4 construct: made in house; not restated for the human SEAP-His protein
# T4 sequence (P54764 20-547): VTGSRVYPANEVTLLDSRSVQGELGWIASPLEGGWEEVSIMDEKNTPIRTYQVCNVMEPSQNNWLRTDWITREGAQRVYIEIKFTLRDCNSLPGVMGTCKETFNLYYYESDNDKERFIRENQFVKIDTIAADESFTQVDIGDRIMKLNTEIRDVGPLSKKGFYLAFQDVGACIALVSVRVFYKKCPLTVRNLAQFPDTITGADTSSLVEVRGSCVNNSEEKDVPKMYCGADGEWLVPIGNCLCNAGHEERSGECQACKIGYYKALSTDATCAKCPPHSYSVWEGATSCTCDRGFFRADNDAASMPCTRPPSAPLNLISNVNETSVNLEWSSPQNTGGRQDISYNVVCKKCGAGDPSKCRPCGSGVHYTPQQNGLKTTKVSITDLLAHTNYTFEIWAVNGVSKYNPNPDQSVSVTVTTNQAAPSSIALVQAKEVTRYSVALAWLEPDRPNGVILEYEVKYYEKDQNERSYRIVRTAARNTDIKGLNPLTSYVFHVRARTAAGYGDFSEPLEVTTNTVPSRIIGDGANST
# Outline: as §1
# human EphB2 = molecular target: T1, human EphB2; settings: coated protein 1 nM
# Outline: as §1
# human EphB4 = molecular target: T2, human EphB4; settings: coated protein 1 nM
# Outline: as §1
"hEphA2-SEAP-: absorbance at 450 nm, percentage with respect to hEphA4-SEAP-His as 100% (human EphA2) [%]","hEphA4-SEAP-: absorbance at 450 nm, percentage with respect to hEphA4-SEAP-His as 100% (human EphA4) [%]","hEphB2-SEAP-: absorbance at 450 nm, percentage with respect to hEphA4-SEAP-His as 100% (human EphB2) [%]","hEphB4-SEAP-: absorbance at 450 nm, percentage with respect to hEphA4-SEAP-His as 100% (human EphB4) [%]",Molecule
4.5,100,4.5,4.5,"77 (antibody, V domains shown, synthetic humanized antibody heavy chain variable region sequence; synthetic humanized antibody light chain variable region sequence) VH: QVQLVQSGSELKKPGASVKVSCKASGYTFTDYSMHWVRQAPGQGLEWMGWINTETGEPTYADDFKGRFVFSLDTSVSTAYLQISSLKAEDTAVYYCARIPLYYYGSRYWYFDVWGQGTTVTVSS VL: DIQMTQSPSSLSASVGDRVTITCRASENIYRNLAWYQQKPGKAPKLLVYAATNLADGVPSRFSGSGSGTDYTLTISSLQPEDFATYYCQHFWGTPWTFGQGTKVEIK"
5.1,100,5.3,5.2,"136 (antibody, V domains shown, synthetic humanized antibody heavy chain variable region sequence; synthetic humanized antibody light chain variable region sequence) VH: QVQLVQSGSELKKPGASVKVSCKASGYTFTDYSMHWVRQAPGQGLKWMGWINTETGEPTYADDFKGRFVFSLDTSVSTAYLQISSLKAEDTAVYYCARIPLYYYGSRYWYFDVWGQGTTVTVSS VL: EIVMTQSPATLSVSPGERATLSCRASENIYRNLAWYQQKPGQSPRLLIYAATNLADGIPARFSGSGSGTEYTLTISSLQSEDFAVYYCQHFWGTPWTFGQGTKVEIK"
5.5,100,5.5,5.6,"156 (antibody, V domains shown, synthetic humanized antibody heavy chain variable region sequence; synthetic humanized antibody light chain variable region sequence) VH: QIQLVQSGSELKKPGASVKVSCKASGYTFTDYSMHWVRQAPGQGLKWMGWINTETGEPTYAQGFTGRFVFSLDTSVSTAYLQISSLKAEDTAVYYCARIPLYYYGSRYWYFDVWGQGTTVTVSS VL: DIQMTQSPSSLSASVGDRVTITCRASENIYRNLAWYQQKPGKAPQLLLYAATNLADGVPSRFSGSGSGTDYTLTISSLQPEDFATYYCQHFWGTPWTFGQGTKVEIK"
4.9,100,5.1,5.1,"78 (antibody, V domains shown, synthetic humanized antibody heavy chain variable region sequence; synthetic humanized antibody light chain variable region sequence) VH: QVQLVQSGSELKKPGASVKVSCKASGYTFTDYSMHWVRQAPGQGLKWMGWINTETGEPTYADDFKGRFVFSLDTSVSTAYLQISSLKAEDTAVYYCARIPLYYYGSRYWYFDVWGQGTTVTVSS VL: DIQMTQSPSSLSASVGDRVTITCRASENIYRNLAWYQQKPGKAPKLLVYAATNLADGVPSRFSGSGSGTDYTLTISSLQPEDFATYYCQHFWGTPWTFGQGTKVEIK"
